Measured values as given in the domain aggregation screens of Martell et al. (2025).

Experiment: soluble fraction after stress (log2 fold change); higher = more stays soluble; pooled small domains, quantitative proteomics
Conditions: stress: 75 degC
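Note: 20 min heating vs room temperature control held 20 min.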

| Sequence | soluble fraction (log2) |
| --- | --- |
| HMSSEYARFFSGNYYEVLGVAKNASYDEIKAAWKKLVKEYHPDLHPQRQEEFTKIIQKINEAYEYFKKMH | -0.583 |
| HMSSFFLIDVSQVRIGMYIQLDVGWMRHPFPVNSFRITNQEQLDTLRSLNLAQVRWSPAKSDL | -3.64 |
| HMSSFIEAIKQSGTDSLDVIMKNGRVYRYVGIDADRLGYLLEPHQQKLSLEESIGRFYIDYIKGIYEAIE | -1.47 |
| HMSSGNLESLLNKLHNEDYFVRLDAVKALGALGDPGAIDYLIEMLSENGIMRGWVANSLAALGEAQWKKII | -2.22 |
| HMSSHSAEAVRHRIKSMIDHEARDGDVLSDDRIVELLNQAGIDIARRTVAKYREALRIPSSVERKRRLKA | -0.163 |
| HMSSKRDQFIVLGQEILEKMFKNEGLEFSEKGLLAVMPNFEAESINDIYAKVGEGLISGWDVMKAVYPAY | -0.311 |
| HMSSKSLAALSPQEYRLLPLVAEGKTNKEIASALALSDKTVKNYLANIFSKLGITRRTQAATLYARAL | -0.338 |
| HMSSKYLKIYNDIVGKIDSGIFEANTKLPSESQLMDEYNVSRYTVRKSLNLLEQNGYIEKSKGKGSFVLDM | -1 |
| HMSSLQFVTLTLMEGHAWVGREIQELLMPPQMRIALIRRGDSQVIPKGSTILESADELILSAIEYQG | -4.48 |
| HMSSLREQVADALRAHLVSGRMRPGVLYSAPKLAAEFGVSATPVREAMLDLVSEGLVDVVRNKGFRVT | -0.597 |
| HMSSPPNPQLAKRYISYSVDDIARLFGIHRHTVREWIKRGLPVIDQQRPLLVQGADLAEFLRKRRA | -0.948 |
| HMSSPVIQINTRNDGWIIKLLQPAVEKDVLEGYLADVGLKLQSQMMEKILAAPAGTEFHIKRGSNILTE | -0.291 |
| HMSSQADEEALFKLLAANPYSDEQLEEIRIAIGSGIAYKDIIRIADIGNTAERMKQLRLEFTKDTAN | 0.173 |
| HMSSQGSLEKGYSALLDGRLDDAALAYGAALAANPMERDALLGLAYVAHSKGRREEAQALYRKVLR | -0.303 |
| HMSSSTFVGRVAVITIGEARQNSPAEARFKDRHGTTHYVMVEPMEDVVFKQGDKVLLVESAGATFKVIEPA | -1.58 |
| HMSSTSISFNDFQKYWLSNDIKSFQLREDKMTVQGSLKNGTAYETVVPSERLFQFIGQHPKD | 0.863 |
| HMSSVDLLSERERQVLARISRGMSNEEIAAELAITPRTVRNHLANIYGKIDVHSRAEAVVWARERGIT | -0.362 |
| HMSSVEQAILETLSKEHSHLTSLQVFEEIRGRLPAVNQSTVYRALERLVEQGVVSVSDMGTHAAVYE | -0.197 |
| HMSSVMMPDLTGESAIVAMERLQQLGLLPKVEEVDSYREPGIVLEQLPRAGEKIKRGRIAILKVSS | -0.0579 |
| HMSSVTGMERFLSSGAVKGIGKTMAARIVEHFGTETMTVLESFPERLAEVPGIGAKKAEAIGQSYSEISD | 0.158 |
| HMSSVVARRARIATLVVETSVASQEELGRLLADEGITVTQATLSRDLDALGAVKVLSADGGTRYRIPGQ | -1.87 |
| HMSSVVVARTWTDTTGDFKVEAELLGVEGGLVRLKKEDGTVLSVPIAKLSTADRTFLQENQP | 0.00842 |
| HMSSWEDNFSYWIRNVAETLDKDLLNVANSKLEKIIINAALDQTNGKKNEAAILLGLGRNTLAKKIKELG | -0.799 |
| HMSSWEEQLKIWAKNELASGNTDILARATVSFEQILIEAALTHTGGRKKTAAELLGWGRNTLTRKIKELHI | 0.0904 |
| HMSSWEVLAEPIQTVMRRYGVPGAYEKLKEVTRGKSLTAEALHALIRSLDIPQADKERLLALTPAAWA | -1.34 |
| HMSSYAEVMERSKYLQLHKYKIWKSETDGFWRTYYLNEQGKRKMKKLKHSEDMIDFVIEYVQNNE | -2.17 |

| Sequence | soluble fraction (log2) |
| --- | --- |
| HMSTDDILSSITALRLASVQFQLGQFDPALDSLKLVKEQAWSGAKNILAGDIQLAKGDKEAAKASYQQAQQ | -0.422 |
| HMSTDIPFNIFSQKWNADEIDSIVVENNKIEGKTKDNKKFSTYAPDELLTSLMENHKNPNVIVEFRAP | 0.576 |
| HMSTDKIDIVSSAILSSLKDNDGFIGLTDKSPPPEIYTAFRVSKKVFKQAIGALYKQRRITLESSGIRLIS | -0.288 |
| HMSTDSTQLLGFNKTGEELPIYKEANEENKFAEIPQNVYVKNFGQNGEFTKIKYLDQEGYVKTAGLK | 0.955 |
| HMSTEEYDRGYEQGLEEAAKADDAWVANLIKIYSQNTPESMPETMKGRLDAFLYEQQRRAQSVPEM | 0.918 |
| HMSTIAAMADPRAWALEMLGFPPGTVKPSKREIQVRFRESLRDVHPDHGGDSRTASASINDLSEARRVLLS | -0.36 |
| HMSTLGIRIKHYRTDSNLTQKELAGLINVKRDALANWETDRALPDVMNLKKLAEVFQVSTDELLQV | -1.02 |
| HMSTLTGTQRAAVVLMQMSPPNAARVMAQFTDAEAEEIAAEIVRLRKVDPEVAEQIMKDFHEAALSS | -0.226 |
| HMSTLTLTSGTYAVGENIKAGKYTIMGSGSIAISSSGKARVNSNLTADRKDYVLNDDETIKIKGKAQFIPI | -0.315 |
| HMSTMKIVRVKSNLKIGQEITSKDIEVVEVGAYNMPSEVMKNSEDVIGKYASAEMIKGEYVLAAKISDTP | 0.151 |
| HMSTMNRLPRHEQILKLVRANGFMPIEELARLLDVTPQTIRRDINTLSEENLLRRFHGGAALGPSVE | -0.371 |
| HMSTMTGTVDTPGASLNVRTGAWGPIVGQLAHGSKVTIIGSSGDWFKISYNGATRYVHKNYVNTT | -0.683 |
| HMSTMVEIPNVVGMTIKEAKEALGNLGLSISKISGSNEDSAIVTEVSPAPGSSVKRDESITLVGQPK | 0.683 |
| HMSTPAKVTPTNPIVKQLFNAAETQIKNKDIQNAIASYEKADTLTTDEKVKQYIHYQLSTLKDDN | -0.0812 |
| HMSTPERQEVLDILKRQGEMTPLQIAGQISRTSKSVSNILSKLKREGFVANGAKYGSWVSTES | -0.0675 |
| HMSTPTVDTKTKLDLYNLLYKKDLNYLDAYNFVLDNFGSDNIDIMFKMLGLDFTNWVIENKPE | 0.139 |
| HMSTQYKTGHYKTTDALNLRASYSTSSNVLLTIPKGKTIVVTRVHNNEWGQVEYNGKTGWIYLEYTAYTES | -1.85 |
| HMSTSAAELLRTARQQAGMSQSAVAELAKTSQSAIAMYEAGNREPSLPVLQRLLAATGHQLSLSVLP | -0.337 |
| HMSTTILSFQNRVVIETLHNEGRSLRYIANYLGFSKATIFNELHRLNSEYRAELAQADFERKVSQR | -3.06 |
| HMSTVAETVYNEIRDDILYGELQPGVKLKLEALRERYSVGVNTLREVLNRLVASGFVFVEGQKGFRVV | 0.365 |
| HMSTVEKDSELGGNFRIASYPTGKGQISEAIRSMIVRAKQVGVNIRLNTEATEEPLRALAPNAVILATG | 0.188 |
| HMSTVELPVQINGKVRGRITVPANAGQEDVKQAALADSKVQRYIEGASIRKVIVVPRKLVNIVV | -0.215 |
| HMSTVTGLINYLSSGLIKGVGEATARKLVDHFGLDVLDIIQFNPQRLLEVDGIGEARAEMIASSFSEQK | -1.21 |
| HMSVDIIPGKADQKVRLIHDPAIVGVTTGGVKTAGPHTLIQIELGPNERPYKRLSLLELIPEG | -0.347 |
| HMSVDVGMQLRKLREERKISMRELARLSGLSANALSMIERGLTSPSVSTLNKLAGALEVPITAFFRI | -1.35 |
| HMSVEVPNLIGKTLDQVDIDLKSLDLSFVILDSARYNSSFKPLSVIDHQPISGAKVKVNRKIYLTINPS | -0.411 |

| Sequence | soluble fraction (log2) |
| --- | --- |
| HMSVKIELNENEQAIFTAVQKVNEAVLPELRAQFSDMSNKAWDNSVKMLTKNNLLKVSKEGEILYIRM | -1.22 |
| HMSVKSVSLRKISYKVRRGDSLYNIAKNFSLSINDITHWNSINKKSYLQPGQRLTLYINPRN | -2.18 |
| HMSVKVFRDQILLNNDSDKMLQLSFSNLFGQKVLETSISPGKSAISTGNLPPGIYFITTSPATGVMRVII | -1.78 |
| HMSVLRLGNRGPDVRKLQLLLNSTLVPSPQLTVDGDFGKRTEQAVVTFQQMRGLPQDGIVGQRTWALLGQT | -0.652 |
| HMSVLSVASKNQAINPGQVVALLKDGIKLNDDGRVEILDNNNNIRYNEKGNLLSIEERVKEFLDANPHFRQ | -0.399 |
| HMSVLVLPMLKELTHEDREVVELFYLNDMSVREIALIISVPIGTVKSRLHRARAQLKHQIVNLNQ | -3.76 |
| HMSVPVNAPMPGTILDIKVKAGAAVKAGDVVMILEAMKMENEISAPQDGTIASIDVRKGDTVNSGDVLYTM | -0.198 |
| HMSVSVNAPMPGNILDVRAKTGESIQKGQVIVILEAMKMENEIMAPQDGKISSINTSKGSTVNSGDLLFTM | -0.106 |
| HMSVTMPNLVGLDEQTAVTRINSSNLSYGSTNYVHSDHEAGVVFKQSTPAYTEVDEHTKIYIWVSLGPEE | -0.729 |
| HMSVTPLLDATEKDKTKYRDLWLVAVVKNGVNYARKYKFGYVYAWLYRHDRDWLLQVNNQHKIPNIT | 0.0707 |
| HMSVTVMVLRAAGDIQAGTEITDKHLATVEVGEYGLPEGIINDKDSILGKIALTDIAKGDYFFSQKLG | -0.954 |
| HMSVVKPIYIGMMTSEVEAIMGKPFEVITNNNSKNNQLWIYKYQDKRSVMLTFTNYKLIKIE | -2.7 |
| HMSWDNELLERAHKIIELYPQKRSALGPLLYLAQEKDGFISDDSIVEISNLVDITEVQVKSVSSFYSMY | -0.903 |
| HMSWGDVKLTMWGAEEDQTMLREMADAFIEQNADKGNVTIEIGVQSESSAKDTVLADPESAADVFA | 0.242 |
| HMSWRWVPVSGAYTTSALEAAGLTRAFDDQAAAEEWLGLFFDDLLREGVGEVSLYEEDRLVYGPMSL | -2.49 |
| HMSYANVEWRDFLNSLDEKYRIVVILYYVQGFKTREIAEILQINQSTVRGRLAKAREKLEQQYN | -1.4 |
| HMSYFIFDGVLNLGKQYELKGEESSHITKSRRLRPGDSFLIQDQEGQRFEAILKSFDRNSLIFTPHKPTA | -0.722 |
| HMSYFNEYEVGDTIRVVNGPLADQISTITAIDKEKGLVNISTVFFGRENNVQVSINDIEKYN | 0.0153 |
| HMSYGDLTGRTVVITGASKGIGARASRVLAQAGASVVGLARSVDELTALKYDLENDGLSFDFG | ≥ 1.04 |
| HMSYKYYSTERPLMPGSFPKPQGNTVLNIENFNDRSYVGKIGREAWGFIEYEKPISPVLLDDYELVAA | -0.235 |
| HMSYLELENLAEDIKATYDNLSTDLREVFRLSDIEGLSYEEISNKMNIPIGTVRSRLHRARETLLRIFNN | -1.39 |
| HMSYPTAVTQTTLNVRTGPGTQYERLGAFVENTEVIVLTRQPEWIQVRGMSGDKAIIGWVSARYLQMNP | -2.21 |
| HMSYQNKLNYLINAFGGADNFQKLLGVGPSAISNYKSRKHLPLNQAKRLSKIAPQFGFSLDPHSLQIST | -0.856 |
| HMSYQSYDKVVGDTFFEANLKAESKFGKGNFEIISTRRVKHPIYLGFGHKELVELTIGIHDP | -1.33 |
